This is an account of results in the supplement of paper PMC10567573.

The nature of this series: protein stability index of a GFP-peptide fusion (GPS, HEK-293T) (PSI 1-6); higher = more stable.
Setting [1] is: treatment: DMSO, c terminus: a fixed tail appended.
The mark [2] stands for this setting: treatment: MLN4924 1 uM, 8 h, c terminus: a fixed tail appended.
Setting [3] is: treatment: DMSO, c terminus: native.
[4] abbreviates: treatment: MLN4924 1 uM, 8 h, c terminus: native.

± gives the standard deviation.
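Note: 24-mer peptide tiles fused after GFP, lentivirally expressed, FACS-sorted into six equal bins by GFP/DsRed ratio, decoded by Illumina sequencing, PSI is the read-weighted mean bin number.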

RDYKIQASRTWCFYNTEDIKDWED [PTGFR] returned a protein stability index under setting [1] of 3.28 ± 0.36 and a protein stability index under setting [2] of 3.68 ± 0.49.

REEEEQVRAHAPRGNAPPRGKGL [KCNG1]: the protein stability index is, setting by setting: under setting [3], 3.15 ± 1.3; under setting [4], 3.68 ± 0.65.

Turning to REERLRRENEELSARYLSQCQEAE [FBF1], the protein stability index is, setting by setting: under setting [1], 5.26 ± 0.29; under setting [2], 4.97 ± 0.54.

Consider REIKVTLVFEHVDQDLRTYLDKAP [CDK4], for which the protein stability index is, setting by setting: under setting [1], 2.65 ± 0.56; under setting [2], 2.68 ± 0.72.

REIQPTAILSLDQIKAIRGSNEYT [SPRY1]: the protein stability index is 3.99 ± 0.29 under setting [1] and 4.02 ± 0.14 under setting [2].

Turning to RERPLNVFCDMETDGGGWLVFQRR [TNXB], the protein stability index runs as follows: under setting [1], 3 ± 0.98; under setting [2], 2.79 ± 0.48.

For RERQRRLEVEREAEKKREAKQRAK [LRRC59], the protein stability index came to 5.22 ± 0.29 under setting [1] and 5.43 ± 0.06 under setting [2].

With RFLRAYREGALRAALQRSLAAALA [TRADD], the protein stability index is 2.27 ± 0.062 under setting [1] and 2.32 ± 0.18 under setting [2].

On to RFPESHLPIQTPGAFLRTCLLSSN [TLE6], for which the protein stability index reads like this: under setting [1], 2.71 ± 0.14; under setting [2], 2.6 ± 0.26.

As for RGCGGTDIELDAARGDAVCTACGS [BRF1], the protein stability index under setting [1] is 4.9 ± 0.24 and the protein stability index under setting [2] was determined as 4.75 ± 0.26.

Consider RGLGSQASTVTEIVKQQDPLVYKA [ACSBG2], for which the protein stability index under setting [1] worked out at 4.32 ± 0.041 and the protein stability index under setting [2] was 4.31 ± 0.52.

In the case of RGLRGEPGPQGSAGQRGEPGPKGD [EMID1], the protein stability index is, setting by setting: under setting [1], 5.19 ± 0.4; under setting [2], 5.41 ± 0.6.

RGMATKLLARPGTGEHREFKLDKK [FBF1]: the protein stability index by setting is: under setting [1], 4.47 ± 0.33; under setting [2], 4.62 ± 0.13.

Regarding RGTHAVVGVATARAPLHSVGYTAL [SPSB4], the protein stability index is 2.68 ± 0.27 under setting [1] and 2.63 ± 0.41 under setting [2].

As to RHAQTISGHALRILIVDWDVHHGN [HDAC6], the protein stability index runs as follows: under setting [1], 2.18 ± 0.18; under setting [2], 2.34 ± 0.4.

Turning to RHCKKYWLISEEEKTQKNQCWKSL [FBXO3], the protein stability index runs as follows: under setting [1], 2.5 ± 0.35; under setting [2], 2.96 ± 0.4.

Consider RIRAILSTYRKRTPVMEGYVEVKE [LOXL2], for which the protein stability index came out at 2.62 ± 0.35 under setting [1] and 2.67 ± 0.38 under setting [2].

As to RIRSQIGNTESELKKLAEENPDLQ [GDAP1], the protein stability index reads like this: under setting [1], 5.42 ± 0.18; under setting [2], 5.39 ± 0.12.

As to RLENRYEALAKQVASEMRFVQDLV [DAPK3], the protein stability index reads like this: under setting [1], 2.5 ± 0.16; under setting [2], 2.45 ± 0.25.

Take RLHLAFKRQVPTEQAQAYAERLGV [RAB40B]: the protein stability index under setting [1] stood at 3.13 ± 0.2 and the protein stability index under setting [2] came out at 3.1 ± 0.26.

RLNFQTPGMASHPPIPILELADHI [PTPRD] returned a protein stability index under setting [1] of 3.23 ± 0.2 and a protein stability index under setting [2] of 3.08 ± 0.087.

On to RLTQYMDGSGMPKTMQSEETRVWH [CAMK2D], for which the protein stability index runs as follows: under setting [1], 3.44 ± 0.47; under setting [2], 3.51 ± 0.19.

On to RLTREVEATRRALIDRMVNLHQA [DDIT3], for which the protein stability index stood at 3.44 ± 0.073 under setting [3] and 3.83 ± 0.32 under setting [4].

On to RLVLCMELANGKPQTRSGPECGLA [ADAMTSL2], for which the protein stability index under setting [2] was 2.22 ± 0.53.

Turning to RLWHTACASDEGEVIVFGGCANNL [KLHDC2], the protein stability index came to 2.75 ± 0.34 under setting [1] and 2.89 ± 0.44 under setting [2].

As to RNLGKVVHYAKVQLRFQHSQDVSD [PLEKHN1], the protein stability index turned out to be 2.49 ± 0.44 under setting [1] and 2.6 ± 0.33 under setting [2].

Turning to RPLGIRAGPNGTLFVADAYKGLFE [APMAP], the protein stability index turned out to be 2.66 ± 0.27 under setting [1] and 2.61 ± 0.44 under setting [2].

Consider RPSLVIHLRIHTGEKPYKCTHCSK [ZNF449], for which the protein stability index turned out to be 2.51 ± 0.49 under setting [1] and 2.31 ± 0.54 under setting [2].

Sequence RQLLCLIDYYESKIRKIHTQRQYK [CEP70] yielded a protein stability index under setting [1] of 2.44 ± 0.37 and a protein stability index under setting [2] of 2.95 ± 0.25.

As to RQPRDELERVRVSCTIIFLASIFQ [TMEM175], the protein stability index reads like this: under setting [1], 2.11 ± 0.15; under setting [2], 2.17 ± 0.28.

Regarding RRDAETWFLSKTEELNKEVASNSE [KRT16], the protein stability index runs as follows: under setting [1], 5.09 ± 0.35; under setting [2], 5.19 ± 0.12.

Consider RRGSWRLPYTDGLSWELLDSHLGG [CTBP1-DT], for which the protein stability index was found to be 2.09 ± 0.09 under setting [1] and 2.66 ± 0.26 under setting [2].

Consider RRQTSMTDFYHSKRRLIFSKRKP [CDKN1A], for which the protein stability index runs as follows: under setting [3], 3.33 ± 0.28; under setting [4], 3.71 ± 0.53.

For RRYVARLEMRRRCTWSIFQSIEYA [PPEF2], the protein stability index worked out at 1.86 ± 0.94 under setting [1] and 2.26 ± 0.14 under setting [2].

As to RSEAVAQLWGQKKKNSNMTYEKLS [ELF3], the protein stability index amounted to 3.52 ± 0.21 under setting [1] and 3.8 ± 0.18 under setting [2].

Consider RSRGASQKKQKLEQKAAGSASAKR [FATE1], for which the protein stability index by setting is: under setting [1], 5.07 ± 0.27; under setting [2], 5.06 ± 0.31.

Turning to RSTNLLAAETASLEEQLQGWGEVM [ARL6IP1], the protein stability index turned out to be 3.85 ± 0.32 under setting [1] and 4.15 ± 0.23 under setting [2].

Sequence RTKQVLHTFKTRFTQPLLPAFTVW [FSD1] had a protein stability index under setting [1] of 2.53 ± 0.32 and a protein stability index under setting [2] of 2.44 ± 0.46.

RTTVFQYPVGWPPVQELPPSLRAP [ZMAT5] had a protein stability index under setting [1] of 2.8 ± 0.17 and a protein stability index under setting [2] of 2.79 ± 0.29.

For the sequence RVPLGRLELLEEVLALGLRTDVGI [RSAD1], the protein stability index by setting is: under setting [1], 2.1 ± 0.44; under setting [2], 2.15 ± 0.31.

The sequence RYWRSLRVMKVEDREGPSSSKLVT [HDAC6] showed a protein stability index under setting [1] of 2.79 ± 0.22 and a protein stability index under setting [2] of 3.07 ± 0.44.

As to SAAIHISETLEQKPHFESSTVKTE [EPB41L3], the protein stability index reads like this: under setting [1], 4.92 ± 0.66; under setting [2], 5.06 ± 0.52.

SAESQGLDGAGLMGFVPHNGSLYG [ADAMTSL2] came in with a protein stability index under setting [2] of 3.47 ± 1.6.

As for SAFGNVKLVVHDCPVWDIFDSDWY [RHOBTB3], the protein stability index is, setting by setting: under setting [1], 2.17 ± 0.33; under setting [2], 2.2 ± 0.12.

In the case of SAGGHGGLLNDTSAPHLENSGHTI [KCNA4], the protein stability index reads like this: under setting [1], 4.21 ± 0.46; under setting [2], 4.48 ± 0.2.

For SAGKRGPDRGSPEYRQRRERNNIA [CEBPD], the protein stability index under setting [1] is 4.61 ± 0.2 and the protein stability index under setting [2] came to 4.41 ± 0.039.

For SAGNRTHKARTRPKARKQGVSPAD [ADAMTSL2], the protein stability index turned out to be 4.75 ± 0.94 under setting [1] and 5.07 ± 0.8 under setting [2].

As for SASPIKDQPVMAVKTGEDGSNLDD [FANCE], the protein stability index is, setting by setting: under setting [1], 5.66 ± 0.27; under setting [2], 5.56 ± 0.2.

Consider SASSSTTCCESTQRSVSDVASGST [IRX6], for which the protein stability index runs as follows: under setting [1], 5.12 ± 0.26; under setting [2], 5.26 ± 0.11.

As to SATSKLIHPDEDISLEERRAQLPK [ZNF207], the protein stability index amounted to 4.9 ± 0.28 under setting [1] and 5.08 ± 0.2 under setting [2].

Regarding SCPGSSYRTVVRPTYKVMYKIVTA [EMID1], the protein stability index by setting is: under setting [1], 2.37 ± 0.53; under setting [2], 2.22 ± 0.26.

In the case of SDRPFKCNQCGKCFIQSSHLIRHQ [ZNF8], the protein stability index is 3.31 ± 0.17 under setting [1] and 3.76 ± 0.61 under setting [2].

As for SECGKAFPRKSELTEHQRIHTGIK [ZNF649], the protein stability index by setting is: under setting [1], 4.07 ± 0.19; under setting [2], 4.2 ± 0.062.

On to SEEELTHIFGDLDSYIPLHEDLLT [NET1], for which the protein stability index runs as follows: under setting [1], 3.88 ± 0.19; under setting [2], 4.03 ± 0.33.

In the case of SEKSQREDEEEEEGENYQKGERGE [CHGB], the protein stability index is 5.48 ± 0.28 under setting [1] and 5.58 ± 0.28 under setting [2].

Consider SELQAYIAQCQDSPTSGKFRRGSG [MCOLN1], for which the protein stability index is, setting by setting: under setting [1], 4.21 ± 0.075; under setting [2], 4.31 ± 0.15.

For the sequence SFACQCPEGHVLRSDGKTCAKLDS [MATN2], the protein stability index under setting [1] stood at 4.41 ± 0.39 and the protein stability index under setting [2] is 4.88 ± 0.27.

On to SFHSSGEKQKQPRWREGTKDSHDP [PBXIP1], for which the protein stability index turned out to be 5.08 ± 0.17 under setting [1] and 5.19 ± 0.24 under setting [2].

On to SFNILVEDRVKLFGIEIEVTDIND [PCDHGA10], for which the protein stability index came out at 2.17 ± 0.4 under setting [1] and 2.55 ± 0.59 under setting [2].

In the case of SFVVARYFPAGNVVNEGFFEENVL [GLIPR2], the protein stability index was determined as 2.11 ± 0.55 under setting [1] and 2.33 ± 0.24 under setting [2].

Regarding SFWNSSHPRGWNDHVHILDTETFT [KLHDC2], the protein stability index is, setting by setting: under setting [1], 2.54 ± 0.17; under setting [2], 2.39 ± 0.3.

On to SGERWLERYEIDSLIGKGSFGQVV [DYRK1B], for which the protein stability index runs as follows: under setting [1], 2.97 ± 0.2; under setting [2], 3.1 ± 0.25.

SGGGRDSSSSILRWLPEKRANPCL [ELOA2]: the protein stability index came out at 3.11 ± 0.26 under setting [1] and 3.47 ± 0.17 under setting [2].

For SGQRLGGYRTSAVASGLQFDVETR [WDFY2], the protein stability index is, setting by setting: under setting [1], 3.82 ± 0.23; under setting [2], 3.74 ± 0.27.

In the case of SGRDRVGRQERGLPPSMERGYPPP [RBMX], the protein stability index is, setting by setting: under setting [1], 4 ± 0.38; under setting [2], 3.94 ± 0.19.

Take SGRNGEVSLDISPDLPFQIKPSEN [PCDHGC5]: the protein stability index runs as follows: under setting [1], 4.47 ± 0.25; under setting [2], 4.56 ± 0.26.

As to SHKRKRSSGSFCYCHPDSETDEDE [GMCL1], the protein stability index under setting [1] turned out to be 5.21 ± 0.4 and the protein stability index under setting [2] came to 5.34 ± 0.2.

With SHLQWQESRLKRSNPLAREIFRRH [ZSCAN9], the protein stability index reads like this: under setting [1], 3.18 ± 0.29; under setting [2], 3.35 ± 0.27.

As for SHRPNQHNTVKLGAFQAQEKELVF [PRIM1], the protein stability index is, setting by setting: under setting [1], 3.06 ± 0.62; under setting [2], 3.25 ± 0.37.

SIALRNISLAKGPPGPKGDQGDEG [SCARA5] registered a protein stability index under setting [1] of 4.68 ± 0.09 and a protein stability index under setting [2] of 4.86 ± 0.2.

With SIQSLTLEWNSLGTWDDAFATFCG [LRRC45], the protein stability index is, setting by setting: under setting [1], 2.25 ± 0.25; under setting [2], 2.08 ± 0.53.

Take SKCKIIHTDIKPENILMCVDDAYV [SRPK2]: the protein stability index by setting is: under setting [1], 2.39 ± 0.33; under setting [2], 2.5 ± 0.17.
